Measurements published in US20130280758A1 (Regeneron, published 2013).

Molecular target: T1, rat Tie-2 (rTie-2), as used in BIAcore analysis (rat, UniProt A0ABK0L6J5 19-740)
T1 construct: It may have been rTie-2-Fc
Assay: BIAcore

B1: FD1-Fc-FD1 (Fc fusion, human)
chain (part 1 of 2): FRDCADVYQAGFNKSGIYTIYINNMPEPKKVFCNMDVNGGGWTVIQHREDGSLDFQRGWKEYKMGFGNPSGEYWLGNEFIFAITSQRQYMLRIELMDWEGNRAYSQYDRFHIGNEKQNYRLYLKGHTGTAGKQSSLILHGADFSTKDADNDNCMCKCALMLTGGWWFDACGPSNLNGMFYTAGQNHGKLNGIKWHYFKGPSYSLRSTTMMIRPLDF
chain (part 2 of 2): B1 chain (part 1 of 2)
notes: domain: fibrinogen domain of Ang1; also called BA1; not shown: Fc
  Kd: 2 nM
